From patent US20210040184A1 (ATRECA, published 2021)
Positions count from the first letter of the chain named.

B1: Germ17 (antibody, V domains shown)
VH: QVDLVQSGAVVKKPGDSVRVSCEAQGYRFPDYIIHWIRRAPGQGPEWMGWMNPMGGQVNIPWKFQGRVSMTRDTSIETAYMDLRGLRSDDTAVYYCVRDRSNGSGKRFESSNWFLDLWGRGTLVTVSS
VL: QSALTQPRSVSGSPGQSVTISCTGTHNLVSWCQHHPGKAPKLMIYDFNKRPSGVPDRFSGSGSGGTASLTISGLQAEDEAEYFCWAYEAFGGGTKLTVL
B2: Germ23 (antibody, V domains shown)
VH: B1 VH with D3Q, V10E, D16A, R19K, Q25S, D82E
VL: B1 VL
B3: Germ12_NglycoSA_CysCA (antibody, V domains shown)
VH: B1 VH with S104A
VL: B1 VL with C32A, H35Q, K38R, M43L, A76D, E79D
B4: Germ6 (antibody, V domains shown)
VH: ADLVQSGAVVKKPGDSVRVSCEAQGYRFPDYIIHWIRRAPGQGPEWMGWMNPMGGQVNIPWKFQGRVSMTRDTSIETAYLDLRGLKSDDTAVYYCVRDRSNGSGKRFESSNWFLDLWGRGTAVTVQS
VL: B1 VL with H35Q, K38R, M43L, A76D, E79D
B5: Cd4bs_H53MS_H54GY (antibody, V domains shown)
VH: B4 VH with V19I, M53S, G54Y, Y79F, V125I
VL: B1 VL with G12A, H35Q, K38R, M43L, S72T, A76D, E77D, E79D
B6: Germ12 (antibody, V domains shown)
VH: B1 VH
VL: B1 VL with H35Q, K38R, M43L, A76D, E79D
B7: Germ18 (antibody, V domains shown)
VH: B1 VH with D3Q, V10E, D16A, R19K, Q25S, D82E
VL: B1 VL with H35Q, K38R, M43L, A76D, E79D
B8: Germ12_NglycoSA_CysCV (antibody, V domains shown)
VH: B1 VH with S104A
VL: B1 VL with C32V, H35Q, K38R, M43L, A76D, E79D
B9: Germ23_NglycoSA_CysCV (antibody, V domains shown)
VH: B1 VH with D3Q, V10E, D16A, R19K, Q25S, D82E, S104A
VL: B1 VL with C32V
B10: NglycoSA (antibody, V domains shown)
VH: B4 VH with V19I, Y79F, S103A, V125I
VL: B1 VL with G12A, H35Q, K38R, M43L, S72T, A76D, E77D, E79D
B11: Hydro2 (antibody, V domains shown)
VH: B4 VH with V19I, W61Q, Y79F, V125I
VL: B1 VL with G12A, H35Q, K38R, M43L, S72T, A76D, E77D, E79D, A89N
B12: CysCA (antibody, V domains shown)
VH: B4 VH with V19I, Y79F, V125I
VL: B1 VL with G12A, C32A, H35Q, K38R, M43L, S72T, A76D, E77D, E79D
B13: CysCV (antibody, V domains shown)
VH: B4 VH with V19I, Y79F, V125I
VL: B1 VL with G12A, C32V, H35Q, K38R, M43L, S72T, A76D, E77D, E79D

Columns and labels:
Assay in all cases: cell-based or functional assay
[1] = target: HIV-1 X1632_S2_B10 envelope (Env) on Env.IMC.LucR virus (HIV-1 clade G)
[2] = target: HIV-1 DU422.1 envelope (Env) on Env.IMC.LucR virus (HIV-1 clade C)
[3] = target: HIV-1 DU172.17 envelope (Env) on Env.IMC.LucR virus (HIV-1 clade C)
[4] = target: HIV-1 CAP45.2.00.G3 envelope (Env) on Env.IMC.LucR virus (HIV-1 clade C)
[5] = target: HIV-1 CNE20 envelope (Env) on Env.IMC.LucR virus (HIV-1 clade BC)
[6] = target: HIV-1 REJO4541.67 envelope (Env) on Env.IMC.LucR virus (HIV-1 clade B)
[7] = target: HIV-1 AC10.0.29 envelope (Env) on Env.IMC.LucR virus (HIV-1 clade B)
[8] = target: HIV-1 WITO4160.33 envelope (Env) on Env.IMC.LucR virus (HIV-1 clade B)
[9] = target: HIV-1 ZM233M.PB6 envelope (Env) on Env.IMC.LucR virus (HIV-1 clade C)
[10] = target: HIV-1 THRO4156.18 envelope (Env) on Env.IMC.LucR virus (HIV-1 clade B)

| Binder | IC50 of virus neutralization (TZM-BL, luciferase) [1] [µg/mL] | IC50 of virus neutralization (TZM-BL, luciferase) [2] [µg/mL] | IC50 of virus neutralization (TZM-BL, luciferase) [3] [µg/mL] | IC50 of virus neutralization (TZM-BL, luciferase) [4] [µg/mL] | IC50 of virus neutralization (TZM-BL, luciferase) [5] [µg/mL] | IC50 of virus neutralization (TZM-BL, luciferase) [6] [µg/mL] | IC50 of virus neutralization (TZM-BL, luciferase) [7] [µg/mL] | IC50 of virus neutralization (TZM-BL, luciferase) [8] [µg/mL] | IC50 of virus neutralization (TZM-BL, luciferase) [9] [µg/mL] | IC50 of virus neutralization (TZM-BL, luciferase) [10] [µg/mL] |
| --- | --- | --- | --- | --- | --- | --- | --- | --- | --- | --- |
| B1 | > 50 | > 50 | 0.117 | 0.037 | 0.081 | 0.033 | > 50 | – | – | – |
| B2 | > 50 | > 50 | 0.182 | 0.035 | 0.066 | 0.037 | > 50 | – | – | – |
| B3 | > 50 | > 50 | 0.088 | 0.042 | 0.062 | 0.028 | > 50 | – | – | – |
| B4 | > 50 | > 50 | 0.102 | 0.135 | 0.091 | 0.062 | > 50 | – | – | – |
| B5 | 9.87 | 0.89 | 0.273 | 0.03 | 0.047 | 0.044 | 3 | 0.15 | 0.096 | – |
| B6 | > 50 | > 50 | 0.267 | 0.063 | 0.244 | 0.092 | > 50 | – | – | – |
| B7 | > 50 | > 50 | 0.223 | 0.036 | 0.081 | 0.039 | > 50 | – | – | – |
| B8 | > 50 | > 50 | 0.714 | 0.047 | 0.059 | ≤ 0.02 | > 50 | 0.488 | 0.731 | 11.7 |
| B9 | > 50 | > 50 | 0.831 | 0.05 | 0.064 | ≤ 0.02 | > 50 | – | – | – |
| B10 | > 50 | > 50 | 0.11 | 0.037 | 0.05 | 0.04 | > 50 | 0.179 | 0.151 | 0.929 |
| B11 | > 50 | > 50 | 0.131 | 0.039 | 0.049 | ≤ 0.02 | > 50 | – | – | – |
| B12 | > 50 | > 50 | 0.169 | 0.035 | 0.034 | ≤ 0.02 | > 50 | – | – | – |
| B13 | > 50 | > 50 | 0.102 | 0.035 | 0.037 | ≤ 0.02 | > 50 | 0.186 | 0.079 | 1.4 |
